Assay: yeast display, Sf9 membrane polyspecificity reagent, FACS + sequencing; frameworks hold sequencing errors
Method in brief: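 Polyreactivity labels are assigned by the sorting gate from which each nanobody was recovered. The gates were low and high (top ~1%), set on anti-HA fluorescence for expression and streptavidin fluorescence for reagent binding. Before sorting, galactose-induced (36–48 hours) yeast display cells were stained for 1 hour at 4 °C with 10% biotinylated, detergent-solubilized Sf9 membrane reagent.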
In the case of “QVQLVESGGGLVQAGGSLRLSCAASGRIFTRNAMRWYRQAPGKEREFVAAISHSGGSTYADSVKGRFTISRDNAKNTVFLQMNSLKPEDTAVFYCAAEWSSLNFDYWGQGTQVTVSS”, the “polyreactivity (PSR sort gate)” value is reported as “low polyreactivity”.
For “QVQLVESGGGLVQAGGSLRLSCAASGRIFTRNTMGWYRQAPGKERELVAAISGRGGSTYYADSVKGRFTISRDNAKNTVYLQMNSLKPEDTAVYYCAADGVYRGGYDYWGQVTQVTVSS”, the “polyreactivity (PSR sort gate)” value was “high polyreactivity”.
For “QVQLVESGGGLVQAGGSLRLSCAASGRIFTRYAMGWYRQAPGKERELVAAITYSGGSTYYADSVKGRFTISRDNAKNTVYLQMNSLKPEDTAVYYCAAPYIGFVRHRKMGYWGQGTQVTVSS”, the “polyreactivity (PSR sort gate)” value was “low polyreactivity”.
For “QVQLVESGGGLVQAGGSLRLSCAASGRIFTSNVMGWYRQAPGKERELVAAISWTGGNTYYADSVKGRFTISRDKAKNSVYLQMNSLKPEDTAVYYCAVTYWSAVFIPNKYDYWGQGTQVTVSS”, the “polyreactivity (PSR sort gate)” value was “low polyreactivity”.
For “QVQLVESGGGLVQAGGSLRLSCAASGRIFTSYAMGWYRQAPGKEREFVAAITRRGGSTYYADSVKGRFTISRDNAKNTVYLQMKSLKQEDTAVYYCAADIYSVPYPSWARYDYWGQGTQVTVSS”, the “polyreactivity (PSR sort gate)” value was “high polyreactivity”.
For “QVQLVESGGGLVQAGGSLRLSCAASGRIFTSYAMGWYRQAPGKERELVAAITSGGRTYYADSVKGRFTISRDNAKNTVYLQKNSLKAEDTAVYYCNAPRYLRYNYCGQGTQVTVSS”, the “polyreactivity (PSR sort gate)” value was “high polyreactivity”.
In the case of “QVQLVESGGGLVQAGGSLRLSCAASGRIFTSYVMGWDRQAPGKERELVAAITRSGGSTYYADSVKGRFTISRDNAKNTVYLQMNSQKPEDTAVYYCAAGVRGGGGRYRYGYWGQGTQVTVSS”, the “polyreactivity (PSR sort gate)” value is reported as “high polyreactivity”.
In the case of “QVQLVESGGGLVQAGGSLRLSCAASGRIFTTNAMGWYRQAPGIERELVAAITYSGGTTYYADSVKGRFTISRDNAKNTVYFQMNSLKPEDTAVYYCAADVKFSPPYDYWGQGTQVTVSS”, the “polyreactivity (PSR sort gate)” value is reported as “low polyreactivity”.
In the case of “QVQLVESGGGLVQAGGSLRLSCAASGRIFTTNAMGWYRQAPGKDRELVAAITYSGGTTYYADSVKGRFTISRDNAKNTVYLEMNSLKPEDTAVYYCAADVKFSTPYDYWGQGTQVTVSS”, the “polyreactivity (PSR sort gate)” value is reported as “low polyreactivity”.
For “QVQLVESGGGLVQAGGSLRLSCAASGRIFTVFGMGWYRQAPGKERELVAAISWSGGGTYYADSVKGRFTISRDNAKNTVYLQMNSLKPEDTAVYYCNAVRQYTWSLVFFSSDYDYWGQGTQVTVSS”, the “polyreactivity (PSR sort gate)” value was “low polyreactivity”.
For “QVQLVESGGGLVQAGGSLRLSCAASGRIFTWNAMGWYRQAPGKERELVASISRSGTSTYYADSVKGRFTISRDNAKNTVYLQMNSLKPEDTAVYYCNARTIYYYFRLSTPYNYWGQGTQVTVSS”, the “polyreactivity (PSR sort gate)” value was “high polyreactivity”.
For “QVQLVESGGGLVQAGGSLRLSCAASGRIFTWYAMGWYRTAPGKERELVATITGDGNTYYADSVKGRFTISRDNAKNTVYLQMKSLKPEDTAVYYCNRYGYFRYRWGKYEYWGQGTQVTVSS”, the “polyreactivity (PSR sort gate)” value was “high polyreactivity”.
For “QVQLVESGGGLVQAGGSLRLSCAASGRIFTYNAMGWYRQAPGKERELVAAITRGGTTNYADSVKGRFTISRDNAKNTVYLQMNSLKPEDTAVYYCARAGAHPWWSRSTMYYWGQGTQVTVSS”, the “polyreactivity (PSR sort gate)” value was “low polyreactivity”.
For “QVQLVESGGGLVQAGGSLRLSCAASGRIFTYNAMGWYRQAPGKERELVATITWRGGGTYYADSVKGRFTISRDNAKNTVYLQMNSLKPEDTAVYYCNRRLPGDGQYGYRRYDYWGQGTQVTVSS”, the “polyreactivity (PSR sort gate)” value was “low polyreactivity”.
In the case of “QVQLVESGGGLVQAGGSLRLSCAASGRIFTYNAMGWYRQAPGKERELVAVISRRGGSTYYADSVKGRFTSSRDNAKNPVYLQMNSLTPEDSAVYYCAADLPSYPYEYWGQGPQVTVSS”, the “polyreactivity (PSR sort gate)” value is reported as “low polyreactivity”.
In the case of “QVQLVESGGGLVQAGGSLRLSCAASGRIFTYNAMVWYRQAPGKERELVAVITSGGSTYYADSVKGRFTISRDNAKNTVYLQMNSLKPEDTAVYYCAARVWGSSQYYYWGQGTQVTVSS”, the “polyreactivity (PSR sort gate)” value is reported as “low polyreactivity”.
In the case of “QVQLVESGGGLVQAGGSLRLSCAASGRIFTYYAKGWYRQPPGKERELVAVISSVGGTYYADSVKGRFTISRDNAKNTVYLQMNSLKPEDTAVYYCAALSDSRWHRFGYWGQGTQVTVSS”, the “polyreactivity (PSR sort gate)” value is reported as “high polyreactivity”.
With “QVQLVESGGGLVQAGGSLRLSCAASGRIFTYYAMGWYRQAPGKERELVAAISTRGGNTYYADSVKGRFTISRDNAKNSVYLQMNSLKPEDTAVYYCSKENYYGGGFDYWGQGTQVTVSS” the “polyreactivity (PSR sort gate)” value was “high polyreactivity”.
With “QVQLVESGGGLVQAGGSLRLSCAASGRIFTYYAMGWYRQAPGKERELVATICSSGSTNYADSVKGRFTISRDNAKNTVYLQMNSLKPEDTAVYYCAKKTRRRYDVKYDYWGQGTQVTVSS” the “polyreactivity (PSR sort gate)” value was “low polyreactivity”.
For “QVQLVESGGGLVQAGGSLRLSCAASGRIFTYYAMGWYRQAPGKERQLVAAISSGTGTNYADSVKGRFTNSRDNAKNTVYLQMNSLKPEDTAVYDCAADRQHVVVGYYYWGQGTQVTVSS”, the “polyreactivity (PSR sort gate)” value was “low polyreactivity”.
In the case of “QVQLVESGGGLVQAGGSLRLSCAASGRIFTYYTMGWYRQAPGKERELVAANDSGSSTYYADSVKGRFTISRDNAKNTVYLQMNSLKPEDTAVYYCAADGVRSLVRRGYWFDYWGQGTQVTVSS”, the “polyreactivity (PSR sort gate)” value is reported as “low polyreactivity”.
In the case of “QVQLVESGGGLVQAGGSLRLSCAASGRIFVANAMGWYRQAPGKERELVAAISRRGGRTYYADSVKGRFTISRDNAKNTVYLQMNSLKPEDTAVYYCARVPTRAEDVAGWTGMDYWGQGTQVTVSS”, the “polyreactivity (PSR sort gate)” value is reported as “high polyreactivity”.
With “QVQLVESGGGLVQAGGSLRLSCAASGRIFVDNAMGWYRQAPGKERELVATITSTGSTNYADSVKGRFTISRDNAKNTVYLQMNSLKPEDTAVYYCADGYYPYWGQGTQVTVSS” the “polyreactivity (PSR sort gate)” value was “low polyreactivity”.
With “QVQLVESGGGLVQAGGSLRLSCAASGRIFVDNTMGWYRPAPGKERELVAAISRRGTSTYYADSVKGRSTISRDNAKNTVYLQMNSLKPEDTAVYYCAADYYYYDSQQGMDYWGQGTQVTVSS” the “polyreactivity (PSR sort gate)” value was “high polyreactivity”.
With “QVQLVESGGGLVQAGGSLRLSCAASGRIFVGYAMGRNIQAPGKERELVAAISRDGDNTFYADSVKGRFTISRDNAKNTVYLQMNSLKPEDTAVYYCAVDYWVWSCSAYAYDYYWGQVTQVTVSS” the “polyreactivity (PSR sort gate)” value was “low polyreactivity”.
With “QVQLVESGGGLVQAGGSLRLSCAASGRIFVGYAMGWSRQAPGKERELVASITRSAGRTFYADSVKGRFTISRDNAKNTVYLQMNSLKPEDTAVYYCNARYWKGYNGYLRSTRRDDYWGQGTQVTVSS” the “polyreactivity (PSR sort gate)” value was “high polyreactivity”.
With “QVQLVESGGGLVQAGGSLRLSCAASGRIFVHNAMGWYRQAPGKERELVAAISQNGGRTYYADSVKGRFTISRDNAKNTVYLQMNSLIPEDTAVYYCAAGQARAGLIGGYWGQGTQVTVSS” the “polyreactivity (PSR sort gate)” value was “high polyreactivity”.
For “QVQLVESGGGLVQAGGSLRLSCAASGRIFVHNAMGWYRQAPGKERELVAAISSGGSTYYADSVKGRFTISRDNAKNTVYLQMNSLKPEDTAVYYCAKYAYYKKYDYWGQGTQVTVSS”, the “polyreactivity (PSR sort gate)” value was “high polyreactivity”.
With “QVQLVESGGGLVQAGGSLRLSCAASGRIFVHYAMGWYRQAPGKERELVAAISWNGGRTFYADSVKGRFTISRDNEKYTVYLQMNSLKPEDTAVYYCAALSRYSLDYWGQGTQVTVSS” the “polyreactivity (PSR sort gate)” value was “high polyreactivity”.
In the case of “QVQLVESGGGLVQAGGSLRLSCAASGRIFVIYAMGWYRQAPGKERELVASIRSSSTYYADSVKGRFTISRDNAKNTVYLQMNSLKPEDTAVYYCAAVAEYRGYDYWGQGTQVTVSS”, the “polyreactivity (PSR sort gate)” value is reported as “low polyreactivity”.
In the case of “QVQLVESGGGLVQAGGSLRLSCAASGRIFVIYAMGWYRQAPGTERELVAAITARGSNTYYADSVKGRFTISRDNAKNTVYLQMNSLKPEDTAVYYCNAEARSYRYPYNYWGQGTQVTVSS”, the “polyreactivity (PSR sort gate)” value is reported as “high polyreactivity”.
In the case of “QVQLVESGGGLVQAGGSLRLSCAASGRIFVIYGMGWYRQAPGKERELVAAIRWTGGSTYYADSVKGRFTISRDNAQNTVYLQMNSLQPEDTAVYYCNAGSDRAIWPTHDYWGQGTQVTVSS”, the “polyreactivity (PSR sort gate)” value is reported as “low polyreactivity”.
For “QVQLVESGGGLVQAGGSLRLSCAASGRIFVIYGRGWYRPAPGKERELVATISWSGSSTSYADSVKGRFTISRDNAKNTVYLQMNSLKPEDTAVYYCAAYTWYSRHRMNYWGQGTQVTVSS”, the “polyreactivity (PSR sort gate)” value was “high polyreactivity”.
With “QVQLVESGGGLVQAGGSLRLSCAASGRIFVKNAMGWYRQAPGKERELVAAISRGGSTYYADSEKGRFTISRDNAKITVYLQMNSLKPEDTAVYNCAPGGQGGDFGDDYWGQGTQVTVSS” the “polyreactivity (PSR sort gate)” value was “high polyreactivity”.
In the case of “QVQLVESGGGLVQAGGSLRLSCAASGRIFVKNAMGWYRQAPGKERELVAGISRGGSTYYADSVKGRFTISRDNAKNTVYLQMYSLKPEDTAVYYCATRNYGRGQFDYWGQGSQVTVSS”, the “polyreactivity (PSR sort gate)” value is reported as “high polyreactivity”.
In the case of “QVQLVESGGGLVQAGGSLRLSCAASGRIFVKYAMGWYRQAPGKERELVAAIRSGGSTYYADSVKGRFTISRDNAKNTVYLQMNSLKPEDTAVYDCAADRNKHHYYTEPYDYWGQGTQVTVSS”, the “polyreactivity (PSR sort gate)” value is reported as “low polyreactivity”.
With “QVQLVESGGGLVQAGGSLRLSCAASGRIFVKYAMGWYRQAPGKEREMVAAISASGGGTYYADSVKGRFTISRDNAKNTVYLQMNSLNPVDTAVYYFNADFRYPGQVPSYVTYDYWGQGTQVNVSS” the “polyreactivity (PSR sort gate)” value was “low polyreactivity”.
In the case of “QVQLVESGGGLVQAGGSLRLSCAASGRIFVKYVMGWYRQAPGKERELVAAISSRGGSTYYADSVKGRFTSSRDNAKNTVYLQMNSLKPEDTAVYYCNKAFTARDDYWGQGTQVTVSS”, the “polyreactivity (PSR sort gate)” value is reported as “high polyreactivity”.
With “QVQLVESGGGLVQAGGSLRLSCAASGRIFVKYVMGWYRQAPGKERELVAAITYTGGTYYADSVKGRFTISRDTAKNTVYLQMNSLKPEETAVYYCAADYQGSYYSGSYQTWTEYYYWGQGTQVTVSS” the “polyreactivity (PSR sort gate)” value was “high polyreactivity”.
For “QVQLVESGGGLVQAGGSLRLSCAASGRIFVNYAMGWYRQAPGKERELVAVISRSGGGTNYADSVKGRFTISRDNAKNTVYLQMNSLKPEDTAVYYCNRVYALTYYAKYGYDYWGQGTQVTVSS”, the “polyreactivity (PSR sort gate)” value was “high polyreactivity”.
For “QVQLVESGGGLVQAGGSLRLSCAASGRIFVPNAMGWYRQAPGKERELVAAITRSGSTYYADSVKGRFTISRDNAKNTVYLQMNSLKPEDTAVYYCAADYYYPSQMDSWGQGTQVTVSS”, the “polyreactivity (PSR sort gate)” value was “low polyreactivity”.

— the nanobody polyreactivity screen of Harvey et al. (2022)
